This note sets out measurements from publication PMC9126151.

As a reminder, the Kd is a measure of binding affinity in units of concentration. A higher Kd goes with a looser complex.

The target in this assay is non-translating 70S ribosome (E. coli) (UniProt P0AG44). The experiment in a line: FRET or BRET. (BRET reads energy transfer from a luciferase to a nearby fluorophore.)

Turning to “methionine aminopeptidase MAP(H79A), TMR-labelled (from UniProt P0AE18 1-264) (enzyme)”, the Kd was 5.4 µM. The value for “peptide deformylase PDF(E133A), TMR-labelled (enzyme)” was 7.3 µM.
